The text below walks through data of US20260125477A1 (BEIJING MABWORKS BIOTECH, published 2026).

For assay [1], the target named is T1, mouse B7-H3/CD276 protein, with His tag (mouse, UniProt Q8VE98 29-244, limits assumed).
T1 construct: Bought protein
T1 sequence (looked up): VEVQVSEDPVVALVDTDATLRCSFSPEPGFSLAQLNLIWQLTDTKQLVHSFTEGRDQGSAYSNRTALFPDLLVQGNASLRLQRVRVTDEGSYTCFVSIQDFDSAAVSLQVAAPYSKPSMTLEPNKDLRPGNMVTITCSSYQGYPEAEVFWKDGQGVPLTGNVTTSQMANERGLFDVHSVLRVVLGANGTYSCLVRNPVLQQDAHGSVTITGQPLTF
The experiment in a line: SPR (Biacore T200), antibody captured on Protein A chip. How it is done: (§1) The fully human anti-human B7-H3 antibodies were tested for their binding affinity to human B7-H3 (4Ig), human B7-H3 (2Ig), monkey B7-H3 (monkey B7-H3/CD276 protein, with His tag, Cat #: B73-C52Ha, ACROBiosystems) and mouse B7-H3 protein (mouse B7-H3/CD276 protein, with His tag, Cat #: B73-M52H4, ACROBiosystems) by surface plasmon resonance (SPR) using Biacore T200 biosensor (Biacore, US) provided with a pre-fixed Protein A sensor chip. Briefly, the anti-human B7-H3 antibodies (1 μg/mL) were injected to the Biacore T200 biosensor at 10 μL/min for 20 sec, to achieve the desired protein density (100±30 RU).
(§2) The data as generated was analyzed using Biacore Insight V2.0.1 5.12933 with the one-to-one Langmuir binding model. The association rate (kₒₙ) and dissociation rate (koff) were obtained at the same time. The affinity was calculated as the quotient of the two kinetic rate constants (KD=koff/kₒₙ).

The target in assay [2] is T1, mouse B7-H3/CD276 protein, with His tag. The experiment in a line: SPR (Biacore T200), antibody captured on Protein A chip, His-tagged antigen injected. How it is done:
as §1, §2

The target in assay [3] is T2, human B7-2/CD86 protein, with His tag (human, UniProt P42081 26-247, limits assumed).
T2 construct: Bought protein
T2 sequence (looked up): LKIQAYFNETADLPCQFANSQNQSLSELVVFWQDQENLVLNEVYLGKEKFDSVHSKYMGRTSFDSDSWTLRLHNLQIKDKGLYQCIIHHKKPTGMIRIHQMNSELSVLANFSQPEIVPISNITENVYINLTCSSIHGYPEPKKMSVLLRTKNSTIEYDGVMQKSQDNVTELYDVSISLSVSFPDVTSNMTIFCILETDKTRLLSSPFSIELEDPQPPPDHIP
Description: SPR (Biacore T200), 6B5 captured on Protein A chip; response against concentration. The method, then: (§3) The anti-human B7-H3 antibodies were tested for their binding capability to B7 family proteins by SPR using Biacore T200 biosensor (Biacore, US) provided with a pre-fixed Protein A sensor chip.
(§4) The dissociation was monitored for 600 sec. The data was analyzed using Biacore 8k evaluation software version 3.0, to obtain the binding responses, and the protein concentration-binding response curves were plotted, to determine the cross-reaction of the anti-human B7-H3 antibodies to the B7 family proteins.

Assay [4] has as its target T3, human PD-L1/B7-H1 protein, with His tag (human, UniProt Q9NZQ7 19-238).
T3 construct: Bought protein
Described as above. The method, then: as §3, §4

In assay [5] the target is T4, human B7-H4 protein, with His tag (MALS verified) (human, UniProt Q7Z7D3 29-258, limits assumed).
T4 construct: Bought protein
T4 sequence (looked up): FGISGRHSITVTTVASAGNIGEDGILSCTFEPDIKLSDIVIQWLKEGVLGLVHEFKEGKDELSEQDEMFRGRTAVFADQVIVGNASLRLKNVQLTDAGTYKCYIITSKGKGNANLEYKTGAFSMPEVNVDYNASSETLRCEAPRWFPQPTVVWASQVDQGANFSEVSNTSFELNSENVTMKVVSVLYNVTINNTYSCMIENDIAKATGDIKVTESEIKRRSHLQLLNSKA
Described as above. How it is done:
as §3, §4

Assay [6] deals with T5, human B7-H5/Gi24/VISTA protein, with His tag (MALS verified) (human, UniProt Q9H7M9 33-194).
T5 construct: Bought protein
T5 sequence (looked up): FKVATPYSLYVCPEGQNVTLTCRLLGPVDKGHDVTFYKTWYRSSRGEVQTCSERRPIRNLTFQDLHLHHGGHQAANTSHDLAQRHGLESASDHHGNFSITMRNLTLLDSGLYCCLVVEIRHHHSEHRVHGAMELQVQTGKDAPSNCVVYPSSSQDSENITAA
The assay is described as above. The method, then: as §3, §4

In assay [7] the target is T2, human B7-2/CD86 protein, with His tag. The experiment in a line: SPR (Biacore T200), antibody captured on Protein A chip. How it is done: as §3, §4
Assay [8] has as its target T6, human PD-L2/B7-DC protein, with His tag (human, UniProt Q9BQ51 20-219, limits assumed).
T6 construct: Bought protein
T6 sequence (looked up): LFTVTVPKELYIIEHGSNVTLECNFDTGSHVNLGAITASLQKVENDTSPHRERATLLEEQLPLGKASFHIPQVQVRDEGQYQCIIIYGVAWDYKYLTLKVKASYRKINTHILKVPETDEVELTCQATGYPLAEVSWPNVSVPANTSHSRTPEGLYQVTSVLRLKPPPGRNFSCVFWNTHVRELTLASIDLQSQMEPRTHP
The assay is described as above. How it is done: as §3, §4

For assay [9], the target named is T7, human B7-H2/ICOSLG protein, with His tag (human, UniProt O75144 19-258, limits assumed).
T7 construct: Bought protein
T7 sequence (looked up): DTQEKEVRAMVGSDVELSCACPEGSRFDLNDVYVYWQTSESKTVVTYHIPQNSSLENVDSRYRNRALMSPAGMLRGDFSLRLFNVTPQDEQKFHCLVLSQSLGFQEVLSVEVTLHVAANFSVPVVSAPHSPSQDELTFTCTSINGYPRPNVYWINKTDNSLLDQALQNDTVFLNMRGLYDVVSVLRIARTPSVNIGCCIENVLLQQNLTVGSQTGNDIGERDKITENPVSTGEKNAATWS
The description is as above. The method, then:
as §3, §4

T3 sequence (Q9NZQ7 19-238 limits assumed): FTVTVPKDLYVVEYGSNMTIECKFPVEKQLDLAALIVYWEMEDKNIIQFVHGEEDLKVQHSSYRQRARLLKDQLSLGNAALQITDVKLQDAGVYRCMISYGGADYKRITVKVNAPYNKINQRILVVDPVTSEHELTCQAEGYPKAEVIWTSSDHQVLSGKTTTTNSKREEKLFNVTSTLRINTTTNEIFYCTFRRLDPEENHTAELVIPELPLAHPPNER

B1: 10D7 (antibody, human IgG1, kappa, V domains shown)
VH: QVQLVQSGPGLVKPSETLSLTCTVSGGSISRSSYYWGWIRQPPGKGLEWIGNIFYAGSTYYNPSLKSRVTISVDTSKNQFSLKLSSVTAADTAVYYCARRITGTTGWFDPWGQGTLVTVSS
VL: DIQLTQSPSSLSASVGDRVTITCRASQGIRNDLGWYQQKPGKAPKLLIYAASTLQSGVPSRFSGSGSGTDFTLTISSLQPEDFATYYCLQDYNYPRTFGQGTKVEIKR
notes: also called 10D7-WT; Ab10D7
As to B1, the binding result in assay [1] is “no binding (tested: 200 nM highest antigen concentration)”.

B2: 6B5 (antibody, human IgG1, kappa, V domains shown)
VH: QVQLVESGPGLVKPSQTLSLTCTVSDGSISSGGYYWSWIRQHPGKGLEWIGYIYYSGGTYYSPSLKSRVTISVDTSKNQFSLKLTSVTAADTAVYYCARRAGYSSSFDSWGQGILVTVSS
VL: EIVLTQSPLSLPVTPGEPASISCRSSQSLLYSNGYTYLDWYLQKPGQSPQFLIYLGFNRASGVPDRFSGSGSGTDFTLKISRVEAEDVGVYYCMQGLQTPYTFGQGTKLEIKR
notes: also called 6B5-WT; Ab6B5
B2 came in with a dissociation constant Kd in [2] of 274 nM. Moreover, the koff in assay [2] is 0.0159 s⁻¹. Also, in [2], the on-rate constant (kon) stood at 58300 M⁻¹ s⁻¹. Besides, the binding result in [3], in [4], in [5] and in assay [6] was “no binding (tested: 200 nM)” in each case.

B3: Enoblituzumab (antibody, human IgG1, kappa, V domains shown)
VH: EVQLVESGGGLVQPGGSLRLSCAASGFTFSSFGMHWVRQAPGKGLEWVAYISSDSSAIYYADTVKGRFTISRDNAKNSLYLQMNSLRDEDTAVYYCGRGRENIYYGSRLDYWGQGTTVTVSS
VL: DIQLTQSPSFLSASVGDRVTITCKASQNVDTNVAWYQQKPGKAPKALIYSASYRYSGVPSRFSGSGSGTDFTLTISSLQPEDFATYYCQQYNNYPFTFGQGTKLEIKR
notes: Humanized anti-B7-H3 antibody of MacroGenics with optimised Fc, used as the positive control; also called AbEno; enoblituzumab-IgG1-Mut
Consider B3, for which, in [1], the binding result is on record as “no binding (tested: 200 nM highest antigen concentration)”.

B4: 10F5 (antibody, human IgG1, kappa, V domains shown)
VH: QVQLVQSGAEVKKPGSSVKVSCKASGGTFSSQAISWVRQAPGQGLEWMGRIIPMLGIGDYAQSFQGRVTITADKSTSTAYLEVSSLGSEDTAVYYCAREGIAALGTNYYYGMDVWGQGTAVTVSS
VL: EIVMTQSPSSVSASVGDRVTITCRASQGISRWLAWYQQKPGKAPKLLIYVASSLQSGVPSRFSGSGSGTDFTLTISSLQPEDFATYYCQQANSFPFTFGPGTKVDIRR
notes: also called Ab10F5
B4: the binding result in [7], in [8] and in [9] was “no binding (tested: 200 nM)” throughout.
